Source: publication PMC2775144

What was measured:
[1] = target: PqsD (Pseudomonas aeruginosa); assay: SEC-MALS
[2] = target: PqsD (Pseudomonas aeruginosa); assay: AUC

Substance: PqsD (enzyme)
- stoichiometry N [1]: 2
- stoichiometry N [2]: 2
